Measurements published in US6900050 (ROCKEFELLER UNIVERSITY, dated 2005).

T1: LexA DNA binding domain-TRAF1 fusion protein (bait plasmid pEG202-TRAF1) (UniProt P0A7C2 1-202; P39428 1-409)
T1 construct: also called LexA-TRAF1
T1 sequence (looked up): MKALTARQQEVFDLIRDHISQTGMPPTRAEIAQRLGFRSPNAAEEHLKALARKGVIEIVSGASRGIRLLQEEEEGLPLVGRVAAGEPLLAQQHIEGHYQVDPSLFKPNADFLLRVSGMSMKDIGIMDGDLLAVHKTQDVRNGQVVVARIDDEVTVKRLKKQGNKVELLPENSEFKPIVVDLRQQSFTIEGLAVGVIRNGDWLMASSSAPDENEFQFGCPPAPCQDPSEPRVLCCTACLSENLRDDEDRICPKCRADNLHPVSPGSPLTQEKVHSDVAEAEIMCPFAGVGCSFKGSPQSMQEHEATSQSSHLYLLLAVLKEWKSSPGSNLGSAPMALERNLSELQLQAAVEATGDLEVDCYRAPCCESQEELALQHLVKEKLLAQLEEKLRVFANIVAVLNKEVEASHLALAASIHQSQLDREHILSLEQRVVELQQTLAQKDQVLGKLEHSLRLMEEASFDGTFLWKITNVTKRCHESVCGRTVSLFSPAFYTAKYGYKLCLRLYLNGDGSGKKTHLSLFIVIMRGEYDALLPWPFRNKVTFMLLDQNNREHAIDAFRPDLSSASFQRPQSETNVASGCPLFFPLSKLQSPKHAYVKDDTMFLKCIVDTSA

T2: LexA DNA binding domain-TRAF2 fusion protein (UniProt P0A7C2 1-202; P39429 1-501)
T2 construct: also called LexA-TRAF2
T2 sequence (looked up): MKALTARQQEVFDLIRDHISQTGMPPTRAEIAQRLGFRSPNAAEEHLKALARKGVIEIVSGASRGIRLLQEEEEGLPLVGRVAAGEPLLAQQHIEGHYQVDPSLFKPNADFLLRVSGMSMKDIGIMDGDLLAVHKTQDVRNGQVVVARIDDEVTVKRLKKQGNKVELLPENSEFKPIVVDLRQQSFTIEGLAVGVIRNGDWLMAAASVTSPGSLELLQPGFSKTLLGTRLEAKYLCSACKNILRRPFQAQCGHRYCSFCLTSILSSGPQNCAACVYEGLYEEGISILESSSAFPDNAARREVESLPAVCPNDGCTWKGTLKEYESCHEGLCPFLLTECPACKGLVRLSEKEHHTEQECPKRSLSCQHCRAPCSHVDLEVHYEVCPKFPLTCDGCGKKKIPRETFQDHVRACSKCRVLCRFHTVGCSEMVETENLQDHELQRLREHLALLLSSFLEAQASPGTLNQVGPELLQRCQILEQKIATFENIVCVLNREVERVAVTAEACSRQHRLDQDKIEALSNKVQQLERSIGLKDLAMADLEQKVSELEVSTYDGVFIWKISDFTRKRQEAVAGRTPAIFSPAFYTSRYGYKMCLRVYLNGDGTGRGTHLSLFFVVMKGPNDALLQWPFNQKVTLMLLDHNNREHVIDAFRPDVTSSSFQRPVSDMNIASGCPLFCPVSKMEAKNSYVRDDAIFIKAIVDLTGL

B1: HA epitope tagged-TRIP expressed in 293 cells (other, not shown: small tags and cut ends)
chain: MPILSLCTICSDFFDHSRDVAAIHCGHTFHLQCLIQWFETAPSRTCPQCRIQVGKKTIINKLFFDLAQEEENVLDAEFLKNELDSVKAQLSQKDREKRDSQAIIDTLRDTLEERNATVESLQNALNKAEMLCSTLKKQMKFLEQRQDETKQAREEAHRLKCKMKTMEQIELLLQSQRSEVEEMIRDMGVGQSAVEQLAVYCVSLKKEYENLKEARKATGELADRLKKDLVSSRSKLKTLNTELDQAKLELRSAQKDLQSADQEITSLRKKSDDPPGNLEPASATNETVSRLVFESPAPVEMMNPRLHQPPFGDEIDLNTTFDVNTPPTQTSGSQHCLPKKLCLERARSPMQNVLKKVHKVSKPESQLSLGGQRCVGELDEELAGAFPLFIRNAVLGQKQPNRTTAESRSSTDVVRIGFDGLGGRTKFIQPRDTTIIRPVPVKSKAKSKQKVRIKTVSSASQPKLDTFLCQ
notes: also called HA-TRIP
B2: mutant TRIP lacking the N-terminal RING finger and the coiled-coil domain (residues 275-470) fused to the transcription activation domain (other, not shown: large carriers)
chain: PGNLEPASATNETVSRLVFESPAPVEMMNPRLHQPPFGDEIDLNTTFDVNTPPTQTSGSQHCLPKKLCLERARSPMQNVLKKVHKVSKPESQLSLGGQRCVGELDEELAGAFPLFIRNAVLGQKQPNRTTAESRSSTDVVRIGFDGLGGRTKFIQPRDTTIIRPVPVKSKAKSKQKVRIKTVSSASQPKLDTFLCQ

Key:
[1] = molecular target: T3, GST alone (control) (UniProt P08515 1-218 = GST); test: glutathione-Sepharose coprecipitation from 293 cells, Western blot (control)
T3 construct: Control for the glutathione-Sepharose coprecipitations; also called GST proteins
Description: Cell lysates were precipitated with glutathione-Sepharose beads, and analyzed by Western blot analysis with anti-TRAF1 or anti-TRAF2 antibodies. The 293 cells were transfected with various combinations of expression vectors and thirty-six hours after transfection, cells were harvested in phosphate-buffered saline/1 mM phenylmethylsulfonyl fluoride, pelleted, and lysed in lysis buffer (20 mM Hepes (pH 7.9), 100 mM KCl, 300 mM NaCl, 10 mM EDTA, 0.1% NP-40, plus protease inhibitors). After lysis, aliquots of cell lysates were incubated with glutathione-Sepharose (Pharmacia) for 2 hr at 4° C. […]
However, since the interaction of TRAFs with the cognate members of the TNFR superfamily is mediated through the TRAF-C domain rather than the entire TRAF domain, it was-important to determine whether TRIP can indirectly interact with the receptors through TRAFs. […] Cell lysates were precipitated with glutathione-Sepharose beads, and analyzed on Western blots with anti-HA, anti-TRAF1, and anti-TRAF2 antibodies. […]
Aliquots of cell lysates were subjected for purification with glutathione-Sepharose beads as described in Experimental Procedures. Proteins coprecipitated with GST-fusion proteins were analyzed by Western analysis with an anti-HA mAb (12CA5), and anti-TRAF1- or anti-TRAF2-polyclonal antibodies.

[2] = molecular target: T1, LexA DNA binding domain-TRAF1 fusion …; test: yeast two-hybrid, b-gal activity
Source text: (§1) The yeast two-hybrid assay was used to determine the structural requirements for the interaction of TRIP with TRAF1 or TRAF2. […] Expression vectors encoding wild type TRIP or the indicated deletion mutants of TRIP fused to the transcription activation domain were cotransformed into yeast with plasmids expressing LexA DNA binding domain-TRAF1 or -TRAF2 fusion proteins. Inter-actions between fusion proteins were scored by measuring b-gal activity of yeast transformants. The "+" indicates average b-gal activity of three independent yeast transformants was higher than 1000 Miller units; and the "−" indicates average b-gal activity of three independent yeast transformants was about 100 Miller units, which was similar to that of negative controls (bait plasmid alone).

[3] = molecular target: T2, LexA DNA binding domain-TRAF2 fusion …; test: yeast two-hybrid, b-gal activity
Source text: as §1

T3 sequence (P08515 whole entry): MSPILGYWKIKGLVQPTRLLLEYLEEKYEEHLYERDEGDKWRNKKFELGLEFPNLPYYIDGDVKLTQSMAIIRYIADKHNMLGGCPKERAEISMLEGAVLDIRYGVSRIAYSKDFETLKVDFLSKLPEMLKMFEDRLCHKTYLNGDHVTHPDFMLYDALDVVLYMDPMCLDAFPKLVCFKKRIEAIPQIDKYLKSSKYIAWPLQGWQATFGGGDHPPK

Row | Binder | binding result [1] | binding result [2] | binding result [3]
1 | B1 | no binding | – | –
2 | B2 | – | no binding | no binding
